How the values were obtained:
[1] = target: esterase (EaEST) from Exiguobacterium antarcticum B7 (Exiguobacterium antarcticum B7); assay: AUC; sedimentation velocity, 20°C, 2 mg/ml EaEST in 25 mM Tris-HCl pH 8.0, 200 mM NaCl, 5 mM MgCl2, 2 mM DTT; 45,000 rpm; c(s) with SEDFIT
EaEST = target: T1, EaEST (Exiguobacterium antarcticum, UniProt A0ABF7PFX0); assay: X-ray crystal structure, […] Å; format: binding; conditions: crystals from 0.2 M ammonium acetate, pH 7.5, no ligand added; active site, ligand assigned from electron density
T1 construct: gene Eab7_1456; recombinant from pET-21a in E. coli BL21(DE3), purified on His-Trap Ni-NTA, no tag removal told; two protomers in the asymmetric unit (542 residues modelled); catalytic triad Ser96, Asp220, His248
T1 sequence (A0ABF7PFX0 1-272): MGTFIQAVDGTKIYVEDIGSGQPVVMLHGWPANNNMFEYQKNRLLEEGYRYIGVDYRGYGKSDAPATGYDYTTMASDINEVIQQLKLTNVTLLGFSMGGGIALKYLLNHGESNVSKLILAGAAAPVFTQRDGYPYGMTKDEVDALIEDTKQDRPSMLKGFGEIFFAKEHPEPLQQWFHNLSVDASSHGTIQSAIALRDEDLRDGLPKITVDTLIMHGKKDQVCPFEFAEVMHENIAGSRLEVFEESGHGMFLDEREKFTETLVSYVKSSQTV

| stoichiometry N [1] | Compound | X-ray crystal structure, 1.90 Å (EaEST) |
| --- | --- | --- |
| 3 | esterase (EaEST) from Exiguobacterium antarcticum B7 (enzyme) |  |
|  | CC(=O)OO [peracetate] | the peracetate molecule was perfectly fitted into the electron-density map |
